This test deals with Notch4^GFP expressed in transfected Jurkat cells.

Here are results for 1 substance from patent US20230365712A1.

As to Jagged1 (ligand), the Notch4-GFP positive cells (%), Jagged1 without mAb came to 53.5%.
